Experimental findings from patent publication US20250084169A1 are described below.

The target in test [1] is SARS-CoV-2 spike South African Δ3 B.1.351 variant on pseudovirus (RVP-724) (SARS-CoV-2) (UniProt P0DTC2). In words: cell-based or functional assay.
In test [2] the target is SARS-CoV-2 spike N439K variant on pseudovirus (RVP-703) (SARS-CoV-2) (UniProt P0DTC2). Nature of the test: cell-based or functional assay.

Values joined by “and” are separate entries in the source; they are usually repeats but may differ in a detail not shown here. Equal values may be shown once.

For the substance “Imdevimab (biosimilar version) (antibody)”, the EC50 (pM) Neutralization, pseudovirus in test [1] is 2.48 pM and 2.37 pM. Also, in test [2], the EC50 (pM) Neutralization, pseudovirus is 2260 pM and 2220 pM; the fold less potent than REGN10933, pseudovirus neutralization is 1000 fold.
